Test results taken from the supplement of paper PMC10567573.

B1: CCDC6 (parent)
chain: ASVTIQARAEQEEEFISNTLFKKI

Variants of: B1
Assay: protein stability index of a GFP-peptide fusion (GPS, HEK-293T) (PSI 1-6); higher = more stable
Settings: c terminus: a fixed tail appended
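Also: lentivirally expressed fusions sorted by FACS into six bins by GFP to DsRed ratio, PSI derived from sequencing read proportions per bin multiplied by bin number.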

Protein stability index: each site, then its substitutions
Q11: Y 2.91, R 2.83, C 2.97, S 3.75, F 2.07, A 3.52, N 3.71, T 3.4, L 2.97, W 2.07, G 3.49, M 2.29, H 3.37, E 4.13, P 3.67, K 3.4, D 3.99, I 2.39, V 2.56
E12: I 1.69, V 2.19, M 1.9, Q 3.27, S 2.95, T 2.68, G 2.94, D 3.67, P 3.03, A 2.58, Y 2.2, W 2.21, K 3.17, C 2.35, H 2.83, N 3.06, R 2.7, L 2.07, F 2.12
V3: P 4.5, H 4.1, S 4.38, F 3.44, T 4.57, Q 4.42, D 4.89, W 3.32, K 4.33, E 4.86, M 3.5, N 4.6, Y 3.42, G 4.44, A 4.51, C 1.9, R 3.9, I 3.09, L 3.84
E10: P 2.83, R 2.95, C 2.1, S 3.14, A 3.06, G 2.38, T 3.22, V 2.27, Y 2.03, N 3.1, F 2.29, L 2.15, D 3.4, Q 3.22, W 1.54, H 3.25, I 2.39, K 3.15, M 2.95
Q6: G 3.73, M 2.54, T 3.53, E 4.26, W 2.94, N 3.75, R 3.26, A 3.47, K 3.98, Y 1.94, I 1.97, H 3.49, S 3.35, F 2.89, V 2.71, D 4.32, P 4.2, C 2.81, L 2.71
N18: H 3.41, V 1.5, T 3.75, K 3.87, D 4.34, Y 2.07, P 3.96, Q 3.42, A 3.27, L 2.56, R 3.07, C 2.79, W 2.43, M 2.34, E 4.09, G 3.6, F 2.27, S 3.54
I5: G 4.75, M 4.29, L 3.84, A 4.34, T 4.28, C 4.5, K 4.65, H 4.32, R 4.44, D 4.84, F 3.96, N 4.49, E 4.58, V 4, Y 3.73, S 4.24, Q 5.03, P 4.7, W 3.66
A7: R 3, M 2.67, T 3.85, C 2.45, I 1.93, K 3.69, F 1.98, V 2.8, P 3.67, Q 3.93, H 3.6, G 3.66, W 2.74, S 3.9, E 4.49, Y 2.8, L 2.12, D 4.31, N 3.69
A1: T 3.85, V 2.56, Y 2.27, W 1.86
T19: F 2.72, I 2.94, G 4.04, D 3.77, C 3.25, H 3.36, E 3.81, A 3.49
S17: Q 3.77, L 3.35, W 2.54, M 3.06, T 4.27, D 4.38, K 4.03, N 3.59, H 3.58, V 3.18, Y 2.9, A 3.64, E 3.9, I 2.85, R 3.26, C 2.8, G 3.5, F 2.98, P 3.92
T4: W 2.06, I 3.33, M 3.2, F 2.44, A 4.46, D 4.17, G 3.63, S 3.86, H 3.61, V 2.88, K 3.29, E 4.41, C 3.52, Y 2.56, Q 3.74, P 4.32, L 3.21, R 3.14, N 3.98
A9: C 3.23, F 2.37, K 3.6, Y 2.72, S 3.79, H 3.17, E 4.16, P 3.87, R 3.61, G 3.67, T 3.68, V 2.91, W 2.27, D 4.42, I 2.62, L 2.5, Q 4.09, N 3.63, M 3.08
E13: I 2.18, M 2.58, T 3.08, A 2.8, V 2.41, L 2.38, P 3.4, F 2.23, N 3.16, W 2.08, H 2.29, S 3.11, G 3.39, C 3.07, R 3.18, K 3.71, D 3.54, Q 3.29, Y 2
E14: N 2.95, I 2.22, V 2.7, D 3.31, Y 2.31, R 2.52, L 1.89, S 2.79, C 2.08, P 3.01, T 2.87, G 3.02, K 3.2, W 1.81, M 2.99, H 2.7, F 1.87, A 3.13, Q 2.99
I16: T 3.95, W 2.92, Y 3.42, S 4.25, R 3.92, M 3.82, K 4.53, L 3.94, E 4.53, N 4.57, V 4.05, H 4.28, C 4.11, Q 4.66, P 4.35, G 4.43, F 3.49, A 3.84, D 4.34
R8: G 4.13, C 3.27, K 3.79, M 3.12, H 3.78, N 3.69, W 3.27, A 3.79, P 4, E 4.55, D 4.23, Y 3.21, T 3.58, I 2.98, V 3.31, F 2.59, Q 4.14, L 3.03, S 4.05
S2: P 4.25, Q 3.71, F 2.11, M 2.81, C 2.84, V 2.73, W 2.37, D 4.58, I 3.08, K 3.38, L 2.32, Y 2.19, E 4.11, A 4.01, R 3.35, H 3.17, T 3.33, N 3.99, G 3.92
F15: I 4.18, M 3.67, G 4.4, W 2.98, Y 3.78, N 4.65, C 4.19, S 4.03, D 4.68, L 3.73, E 4.69, V 4.52, K 4.13, R 4.09, H 3.72, P 4.61, Q 4.46, T 4.52, A 4.49
